The values below come from patent US20240269235A1 (Gilead, published 2024).

Assay [1] addresses T1, trimeric murine IL-2 receptor (IL-2Rα, IL-2Rβ, and IL-2Rγ) on CTLL-2 cells (murine, UniProt P01590 22-268; P16297 27-539; P34902 23-369).
T1 sequence (looked up) 1: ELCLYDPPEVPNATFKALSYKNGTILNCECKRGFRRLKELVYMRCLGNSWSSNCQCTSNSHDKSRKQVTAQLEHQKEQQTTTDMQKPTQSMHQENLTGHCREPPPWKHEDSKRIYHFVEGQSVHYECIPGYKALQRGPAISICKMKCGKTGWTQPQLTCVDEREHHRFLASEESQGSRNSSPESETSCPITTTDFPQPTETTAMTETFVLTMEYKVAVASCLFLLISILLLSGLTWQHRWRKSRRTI
T1 sequence (looked up) 2: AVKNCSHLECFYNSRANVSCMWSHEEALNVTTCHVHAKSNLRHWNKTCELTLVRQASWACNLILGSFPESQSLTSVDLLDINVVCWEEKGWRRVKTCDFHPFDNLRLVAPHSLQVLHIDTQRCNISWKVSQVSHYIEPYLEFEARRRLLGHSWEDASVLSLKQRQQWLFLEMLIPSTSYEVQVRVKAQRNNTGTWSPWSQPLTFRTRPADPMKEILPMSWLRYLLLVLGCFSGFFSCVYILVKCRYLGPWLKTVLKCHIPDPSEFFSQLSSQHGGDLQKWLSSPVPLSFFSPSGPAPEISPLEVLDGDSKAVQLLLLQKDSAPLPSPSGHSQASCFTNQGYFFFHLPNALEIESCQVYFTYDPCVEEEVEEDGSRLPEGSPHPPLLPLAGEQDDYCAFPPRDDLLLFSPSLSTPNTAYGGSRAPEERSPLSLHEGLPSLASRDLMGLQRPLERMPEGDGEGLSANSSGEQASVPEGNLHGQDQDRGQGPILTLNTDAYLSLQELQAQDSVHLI
T1 sequence (looked up) 3: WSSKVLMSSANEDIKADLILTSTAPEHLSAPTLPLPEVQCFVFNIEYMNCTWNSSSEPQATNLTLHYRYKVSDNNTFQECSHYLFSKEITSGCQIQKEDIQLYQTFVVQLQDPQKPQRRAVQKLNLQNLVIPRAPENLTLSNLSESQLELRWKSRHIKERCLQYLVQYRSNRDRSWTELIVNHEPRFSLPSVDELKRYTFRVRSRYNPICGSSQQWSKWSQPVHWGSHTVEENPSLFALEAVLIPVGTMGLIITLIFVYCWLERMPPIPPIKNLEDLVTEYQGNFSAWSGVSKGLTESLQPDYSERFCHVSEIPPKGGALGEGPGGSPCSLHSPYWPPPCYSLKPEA
In words: cell-based or functional assay.

Assay [2] addresses T2, human IL-2Rα on Treg cells (CD3+, CD4+, CD25hi, FoxP3+) of human PBMC (human, UniProt P01589 22-272).
T2 sequence (looked up): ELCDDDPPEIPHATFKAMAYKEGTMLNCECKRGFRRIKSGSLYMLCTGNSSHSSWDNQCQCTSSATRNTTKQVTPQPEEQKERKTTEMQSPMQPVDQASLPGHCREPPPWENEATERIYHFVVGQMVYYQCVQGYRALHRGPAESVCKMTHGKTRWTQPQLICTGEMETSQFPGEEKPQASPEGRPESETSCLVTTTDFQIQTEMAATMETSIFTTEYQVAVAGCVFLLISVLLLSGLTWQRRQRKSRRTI
Briefly: cell-based or functional assay.

Assay [3] addresses T3, IL-2Rα (recombinant IL-2 receptor α, R&D Systems Cat #: 223-2A/CF), biotinylated (human, UniProt P01589 22-213, limits assumed, biotinylated using sulfo-NHS-LC-LC-Biotin).
T3 construct: Bought reagent; also used here as the IL-2Rα partner of the in-silico analysis of PDB 2B5I (another construct); also called IL-2RA; CD25
T3 sequence (looked up): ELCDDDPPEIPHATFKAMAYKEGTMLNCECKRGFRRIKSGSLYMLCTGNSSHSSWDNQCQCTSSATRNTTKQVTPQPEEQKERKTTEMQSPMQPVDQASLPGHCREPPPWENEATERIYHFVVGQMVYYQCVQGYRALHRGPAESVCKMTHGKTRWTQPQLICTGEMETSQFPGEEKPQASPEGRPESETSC
In words: SPR (Biacore), C1 or CM5 chip, biotinylated receptor on neutravidin. From the text: (§1) Data for binding of Fc-IL-2 variant fusion proteins to IL-2Rα, IL-2Rβ and IL-2Rβγ heterodimer were collected on a Biacore platform using either C1 or CM5 chips. Neutravidin was immobilized using standard amine coupling methods and used to capture biotinylated receptors. Commercially sourced IL-2Rα (R&D Systems Cat #: 223-2A/CF) and IL-2Rβ receptors (R&D Systems Cat #:224-2B-025/CF) were biotinylated using sulfo-NHS-LC-LC-Biotin, desalted, and then captured on the neutravidin surfaces. […] Distinct purification tags were appended to the C-terminus of each chain. A FLAG epitope tag ([…]; SEQ ID NO: 257) was added at the C-terminus of IL-2Rβ subunit, followed by C-terminal Hiss tag ([…]; SEQ ID NO: 258). An AviTag™ ([…]; SEQ ID NO: 259) motif on the IL-2Rγ subunit allowed for site-specific biotinylation of the heterodimer.
(§2) Fc IL 2 fusion protein variants, Fc protein, and Proleukin were injected at various concentrations over these surfaces. Kinetic data obtained from these injections was used to extract kₒₙ and koff to calculate KD (KD=koff/kₒₙ). Experiments were run at 25° C. in HBS-EP+ running buffer (10 mM HEPES, 150 mM NaCl, 3 mM EDTA, 0.05% Tween20, pH 7.4 with 0.1 mg/ml BSA). Data shown in Table 5 for Fc IL-2 fusion protein variants binding to the indicated IL-2R surfaces were derived from the global fitting of data obtained from 2-5 independent surfaces.
Background: In SPR one partner is held on a chip, and binding of the other changes the refractive index at the surface.

Assay [4] deals with T4, IL-2Rβ (recombinant IL-2 receptor β, R&D Systems Cat #:224-2B-025/CF), biotinylated (UniProt P14784 27-239, limits assumed, biotinylated using sulfo-NHS-LC-LC-Biotin).
T4 construct: Bought reagent; also called IL-2RB; CD122
T4 sequence (looked up): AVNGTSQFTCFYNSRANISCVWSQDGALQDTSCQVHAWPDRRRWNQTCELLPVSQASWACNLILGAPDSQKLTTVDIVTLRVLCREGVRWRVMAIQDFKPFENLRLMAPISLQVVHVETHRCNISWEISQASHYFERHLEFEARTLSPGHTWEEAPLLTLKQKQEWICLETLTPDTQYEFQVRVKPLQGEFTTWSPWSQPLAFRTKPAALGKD
Described as above.
Description: as §1, §2

For assay [5], the target named is T5, IL-2Rβγ heterodimer, custom biotinylated Fc fusion protein (human IL-2Rβ 27-240-Fc-FLAG / human IL-2Rγ … (human, site-specific biotinylation at the AviTag)).
T5 construct: Extracellular regions fused to IgG1 knob-in-hole Fc subunits with tags; also called IL-2 receptor βγ heterodimer; Fc-IL-2Rβγ
T5 sequence (chain, as listed by the source limits assumed): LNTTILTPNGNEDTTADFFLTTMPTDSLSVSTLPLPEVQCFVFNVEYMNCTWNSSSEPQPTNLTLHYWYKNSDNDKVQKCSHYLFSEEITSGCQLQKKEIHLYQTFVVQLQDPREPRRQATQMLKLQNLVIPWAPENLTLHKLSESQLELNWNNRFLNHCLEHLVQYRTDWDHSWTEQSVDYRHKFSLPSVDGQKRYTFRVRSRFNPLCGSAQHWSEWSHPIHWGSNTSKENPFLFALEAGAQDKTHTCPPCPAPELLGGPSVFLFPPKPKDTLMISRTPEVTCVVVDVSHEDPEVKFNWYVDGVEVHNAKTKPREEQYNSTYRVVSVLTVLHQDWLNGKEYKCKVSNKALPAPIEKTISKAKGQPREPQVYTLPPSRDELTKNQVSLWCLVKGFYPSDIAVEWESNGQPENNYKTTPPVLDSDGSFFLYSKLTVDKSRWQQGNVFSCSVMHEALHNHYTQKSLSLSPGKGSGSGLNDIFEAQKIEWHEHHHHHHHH
Described as above.
Description: as §1, §2

Numbering of substitutions follows the chain as printed.

B1: Fc-IL-2v heterodimer 81.46 (hIL-2v_Δ1-5_R38G_C125S) (Fc fusion)
chain 1: ESKYGPPCPPCPAPEAAGGPSVFLFPPKPKDTLMISRTPEVTCVVVDVSQEDPEVQFNWYVDGVEVHNAKTKPREEQFNSTYRVVSVLTVLHQDWLNGKEYKCKVSNKGLPSSIEKTISKAKGQPREPQVYTLPPSQEEMTKNQVSLWCLVKGFYPSDIAVEWESNGQPENNYKTTPPVLDSDGSFFLYSRLTVDKSRWQEGNVFSCSVMHEALHNHYTQKSLSLSLGGGGGSGGGGSGGGGSGGGGSSTKKTQLQLEHLLLDLQMILNGINNYKNPKLTGMLTFKFYMPKKATELKHLQCLEEELKPLEEVLNLAQSKNFHLRPRDLISNINVIVLELKGSETTFMCEYADETATIVEFLNRWITFSQSIISTLT
chain 2: ESKYGPPCPPCPAPEAAGGPSVFLFPPKPKDTLMISRTPEVTCVVVDVSQEDPEVQFNWYVDGVEVHNAKTKPREEQFNSTYRVVSVLTVLHQDWLNGKEYKCKVSNKGLPSSIEKTISKAKGQPREPQVYTLPPSQEEMTKNQVSLSCAVKGFYPSDIAVEWESNGQPENNYKTTPPVLDSDGSFFLVSRLTVDKSRWQEGNVFSCSVMHEALHNRFTQKSLSLSLGK
notes: hIgG4 knob-in-hole Fc heterodimer, one IL-2v on the knob chain
B1: the “STAT5 activation of CTLL-2 cells, EC50” value in assay [1] amounted to 0.02 nM. In assay [2], the “Treg EC50, STAT5 activation (PBMC STAT5 assay)” value (“Treg EC50, STAT5 activation” for short) was found to be 0.07 nM. In addition, the Kd in assay [3] is 685 nM; in assay [4], 7000 nM; in assay [5], 0.071 nM. In assay [3], the “fold larger effect on reducing IL-2Rα affinity against R38A (heterodimer 82.46)” value is 6 fold.

B2: Fc heterodimer without a fused IL-2 moiety (heterodimer name: 260:261) (other)
chain 1: B1 chain 2 with S148W, A150L, V189Y, R217H, F218Y
chain 2: B1 chain 2
notes: negative control; also called control Fc protein with no IL-2 fusion
For the molecule B2, the binding result in assay [3], in assay [4] and in assay [5] was “no binding” in each case.

B3: Fc-IL-2v heterodimer 85.46 (hIL-2v_Δ1-5_F42G_C125S) (Fc fusion)
chain 1: B1 chain 1 with G281R, F285G
chain 2: B1 chain 2
notes: as for B1
As to B3, in assay [1], the “STAT5 activation of CTLL-2 cells, EC50” value was determined as 5.5 nM. The “Treg EC50, STAT5 activation” value in assay [2] turned out to be 0.06 nM. Also, the dissociation constant (Kd) stood at 4900 nM in assay [3] and 7500 nM in assay [4].

B4: Fc-IL-2v heterodimer 84.46 (hIL-2v_Δ1-5_T41A_C125S) (Fc fusion)
chain 1: B1 chain 1 with G281R, T284A
chain 2: B1 chain 2
notes: as for B1
As to B4, the “STAT5 activation of CTLL-2 cells, EC50” value in assay [1] is 0.03 nM. Besides, the “Treg EC50, STAT5 activation” value in assay [2] is below 0.001 nM. Moreover, the results for the Kd in assay [3] and in assay [4] were 119 nM and 7000 nM, respectively.

B5: Fc-IL-2v heterodimer 86.46 (hIL-2v_Δ1-5_F42A_C125S) (Fc fusion)
chain 1: B1 chain 1 with G281R, F285A
chain 2: B1 chain 2
notes: as for B1
As for B5, the “STAT5 activation of CTLL-2 cells, EC50” value in assay [1] was found to be 1 nM. Further, in assay [2], the “Treg EC50, STAT5 activation” value amounted to 0.3 nM. Further, the Kd in assay [3] was 2000 nM; in assay [4], 7100 nM; in assay [5], 0.094 nM.

B6: Fc-IL-2v heterodimer 82.46 (hIL-2v_Δ1-5_R38A_C125S) (Fc fusion)
chain 1: B1 chain 1 with G281A
chain 2: B1 chain 2
notes: as for B1
Turning to B6, in assay [1], the “STAT5 activation of CTLL-2 cells, EC50” value came out at 0.01 nM. The “Treg EC50, STAT5 activation” value in assay [2] was below 0.001 nM. The values for the Kd in assay [3] and in assay [4] were 108 nM and 8200 nM, respectively.

B7: Fc-IL-2v heterodimer 83.46 (hIL-2v_Δ1-5_T41G_C125S) (Fc fusion)
chain 1: B1 chain 1 with G281R, T284G
chain 2: B1 chain 2
notes: as for B1
B7: the “STAT5 activation of CTLL-2 cells, EC50” value in assay [1] was found to be 0.04 nM. Also, the “Treg EC50, STAT5 activation” value in assay [2] is below 0.001 nM. Moreover, the equilibrium dissociation constant (Kd) worked out at 29 nM in assay [3], 7300 nM in assay [4] and 0.15 nM in assay [5].

B8: Fc-IL-2v heterodimer 92.46 (hIL-2v_Δ1-5_L72G_C125S) (Fc fusion)
chain 1: B1 chain 1 with G281R, L315G
chain 2: B1 chain 2
notes: as for B1
Turning to B8, the “STAT5 activation of CTLL-2 cells, EC50” value in assay [1] was found to be 0.7 nM. Moreover, in assay [2], the “Treg EC50, STAT5 activation” value was below 0.001 nM. Besides, the Kd in assay [3] is 503 nM; in assay [4], 8000 nM.

B9: Fc-IL-2v heterodimer 93.46 (hIL-2v_Δ1-5_Q74G_C125S) (Fc fusion)
chain 1: B1 chain 1 with G281R, Q317G
chain 2: B1 chain 2
notes: as for B1
In the case of B9, in assay [1], the “STAT5 activation of CTLL-2 cells, EC50” value amounted to 0.002 nM. Also, the “Treg EC50, STAT5 activation” value in assay [2] was below 0.001 nM. Also, the Kd is 21 nM in assay [3] and 8200 nM in assay [4].

B10: Fc-IL-2v heterodimer 91.46 (hIL-2v_Δ1-5_E68A_C125S) (Fc fusion)
chain 1: B1 chain 1 with G281R, E311A
chain 2: B1 chain 2
notes: as for B1
In the case of B10, the “STAT5 activation of CTLL-2 cells, EC50” value in assay [1] is 0.001 nM. In assay [2], the “Treg EC50, STAT5 activation” value was below 0.001 nM. For the same molecule, the Kd in assay [3] came to 32 nM; in assay [4] it was 5900 nM.

B11: Fc-IL-2v heterodimer 88.46 (hIL-2v_Δ1-5_Y45A_C125S) (Fc fusion)
chain 1: B1 chain 1 with G281R, Y288A
chain 2: B1 chain 2
notes: as for B1
Consider B11, for which the “STAT5 activation of CTLL-2 cells, EC50” value in assay [1] was 0.1 nM. For the same molecule, the “Treg EC50, STAT5 activation” value in assay [2] was below 0.001 nM. Besides, the Kd in assay [3] turned out to be 120 nM; in assay [4], 8000 nM.

One may read the Kd as the equilibrium constant for the complex coming apart.
